Laboratory results reported in patent publication US20040058403A1.

Biological target: peptide(18mer)-BodipyFL

NlpA-[Dig scFv] (26-10 anti-digoxin/digoxigenin scFv fused to the NlpA anchor) (from UniProt P04846 24-29)
M (mean fluorescence, FL1-Height): 6.78
